Reference: PMC9516340, “Familial ALS-associated SFPQ variants promote the formation of SFPQ cytoplasmic aggregates in primary neurons” (Open Biology, 2022)

Biological target: the molecule itself
Test: crystal structure; hanging-drop vapour diffusion at 20°C; SFPQ-276-535 L534I (His6-tag removed) mixed 1:1 with RXRα-DBD-130-228 as source of Zn(II); reservoir 0.1 M MES (pH 6.0), 0.2 M calcium chloride, 12% (w/v) PEG 4000; space group P2(1), two protein molecules per asu; 1.83 Å

B1: SFPQ-276-535 L534I (dimerization domain of human splicing factor proline- and glutamine-rich, fALS-associated L534I variant) (domain or fragment, UniProt P23246 276-535, looked up)
chain: EGFKANLSLLRRPGEKTYTQRCRLFVGNLPADITEDEFKRLFAKYGEPGEVFINKGKGFGFIKLESRALAEIAKAELDDTPMRGRQLRVRFATHAAALSVRNLSPYVSNELLEEAFSQFGPIERAVVIVDDRGRSTGKGIVEFASKPAARKAFERCSEGVFLLTTTPRPVIVEPLEQLDDEDGLPEKLAQKNPMYQKERETPPRFAQHGTFEYEYSQRWKSLDEMEKQQREQVEKNMKDAKDKLESEMEDAYHEHQANIL
notes: also called SFPQ L534I
B1: binds.
